In patent EP4534554A1 (Corregene Biotechnology Co., Ltd., dated 2025):
Numbering of substitutions follows the chain as printed. Like-named read-outs stand apart in the source and are kept apart here. Each block holds one binder with its values, some of them ahead of it.

Key:
[1] = molecular target: MAGE-A1 target antigen peptide … presented by HLA-A*02:01 on cells (human); test: cell-based or functional assay; design: EC50 Enhancement Factor: unit not given beside the values
[2] = molecular target: T1, MAGE-A1 peptide on HLA-A*02:01 (human); test: JKR9 reporter + peptide-loaded T2, 16 h; full-length, on cells
T1 peptide: KVLEYVIKV

[3] = molecular target: T1, MAGE-A1 peptide on HLA-A*02:01; test: as above
[4] = molecular target: MAGE-A1 target antigen peptide … presented by HLA-A*02:01 on cells (human); test: cell-based or functional assay

B2: ht27M1378 (TCR, V domains shown)
Valpha: GEDVEQSLFLSVREGDSSVINCTYADYLSTYLYWYKQEPGAGLQLLTYIFSNMDMKQDQRLTVLLNKKDKHLSLRIADTQTGDSAIYFCAGSGGGTDKLIFGTGTRLQVFP
Vbeta: GAVVSQHPSWVICKSGTSVKIECRSLDFQATTMFWYRQFPKQSLMLMATSNEGSKATYEQGVEKDKFLINHASLTLSTLTVTSAHPEDSSFYICSAREPGQGPYEQYFGPGTRLTVT
- EC50 Enhancement Factor [1]: 225
- EC50 Value (M), JKR9 reporter activation by peptide-loaded T2 cells [1]: 7.4e-08 M
- EC50 of peptide [2]: 74 nM

B3: ht27M1290 (TCR, V domains shown)
Valpha: B2 Valpha with A25T, Y27S, L28S
Vbeta: GAVVSQHPSWVICKSGTSVKIECRSLDFQATTMFWYRQFPKQSLMLMATSNEGSKATYEQGVEKDKFLINHASLTLSTLTVTSAHPEDSSFYICSARVNDGTYEQYFGPGTRLTVT
- EC50 Enhancement Factor [1]: 711
- EC50 Value (M), JKR9 reporter activation by peptide-loaded T2 cells [1]: 3.24e-08 M
- EC50 of peptide [2]: 32.4 nM

B6: ht27M1365 (TCR, V domains shown)
Valpha: B2 Valpha with A25T, Y27S, L28S, N52F, M53T, D54Y
Vbeta: B2 Vbeta
- EC50 Enhancement Factor [1]: 165
- EC50 Value (M), JKR9 reporter activation by peptide-loaded T2 cells [1]: 1.01e-07 M
- EC50 of peptide [2]: 101 nM

B7: ht27M1398 (TCR, V domains shown)
Valpha: B2 Valpha with A25T, Y27S, L28S
Vbeta: B2 Vbeta with S50T, E52L, G53P
- EC50 Enhancement Factor [1]: 316
- EC50 Value (M), JKR9 reporter activation by peptide-loaded T2 cells [1]: 5.28e-08 M
- EC50 of peptide [2]: 52.8 nM

B8: ht27M1381 (TCR, V domains shown)
Valpha: B2 Valpha with A25V, Y27P, L28Y
Vbeta: B2 Vbeta
- EC50 Enhancement Factor [1]: 131
- EC50 Value (M), JKR9 reporter activation by peptide-loaded T2 cells [1]: 1.28e-07 M
- EC50 of peptide [2]: 128 nM

B9: ht27M1360 (TCR, V domains shown)
Valpha: B2 Valpha with A25T, Y27S, L28S, S51G, N52F, M53D, D54T
Vbeta: B2 Vbeta
- EC50 Enhancement Factor [1]: 277
- EC50 Value (M), JKR9 reporter activation by peptide-loaded T2 cells [1]: 6.04e-08 M
- EC50 of peptide [2]: 60.4 nM

B10: ht27M1387 (TCR, V domains shown)
Valpha: B2 Valpha with A25T, Y27S, L28S
Vbeta: B2 Vbeta with Q29P, A30I, T31E, T32R
- EC50 Enhancement Factor [1]: 131
- EC50 Value (M), JKR9 reporter activation by peptide-loaded T2 cells [1]: 1.28e-07 M
- EC50 of peptide [2]: 128 nM

B11: ht27M1369 (TCR, V domains shown)
Valpha: B2 Valpha with A25T, Y27S, L28S, S51A, N52F, M53E, D54S
Vbeta: B2 Vbeta
- EC50 Enhancement Factor [1]: 218
- EC50 Value (M), JKR9 reporter activation by peptide-loaded T2 cells [1]: 7.66e-08 M
- EC50 of peptide [2]: 76.6 nM

B13: ht27M1436 (TCR, V domains shown)
Valpha: B2 Valpha with A25T, Y27S, L28S, I49T, S51W, N52F
Vbeta: B2 Vbeta
- EC50 Enhancement Factor [1]: 82.8
- EC50 Value (M), JKR9 reporter activation by peptide-loaded T2 cells [1]: 2.02e-07 M
- EC50 of peptide [2]: 202 nM

B15: ht27M1457 (TCR, V domains shown)
Valpha: B2 Valpha with A25T, Y27S, L28S
Vbeta: B2 Vbeta with S50T, N51D, E52Y
- EC50 Enhancement Factor [1]: 352
- EC50 Value (M), JKR9 reporter activation by peptide-loaded T2 cells [1]: 4.73e-08 M
- EC50 of peptide [2]: 47.3 nM

B16: ht27M1363 (TCR, V domains shown)
Valpha: B2 Valpha with A25T, Y27S, L28S, S51N, N52T, M53Q
Vbeta: B2 Vbeta
- EC50 Enhancement Factor [1]: 261
- EC50 Value (M), JKR9 reporter activation by peptide-loaded T2 cells [1]: 6.4e-08 M
- EC50 of peptide [2]: 64 nM

B18: ht27M1003 (TCR, V domains shown)
Valpha: B2 Valpha with A25T, Y27S, L28S
Vbeta: B2 Vbeta with Q101S
- EC50 Enhancement Factor [1]: 14
- EC50 Value (M), JKR9 reporter activation by peptide-loaded T2 cells [1]: 1.17e-06 M
- EC50 of peptide [2]: 1170 nM

B19: ht27M1374 (TCR, V domains shown)
Valpha: B2 Valpha with A25T, Y27S, L28T, S29D, T30I, Y31L
Vbeta: B2 Vbeta
- EC50 Enhancement Factor [1]: 153
- EC50 Value (M), JKR9 reporter activation by peptide-loaded T2 cells [1]: 1.09e-07 M
- EC50 of peptide [2]: 109 nM

B20: A1A2-M01-626 (TCR, V domains shown)
Valpha: B2 Valpha with A25P, Y27M, L28F, S51A, N52F, D54Q
Vbeta: B2 Vbeta with Q29P, A30I, T31E, T32R, S50T, N51D, E52Y, Y104F
- EC50 of peptide [3]: 22.6 nM
- EC50 Value (M), JKR9 reporter activation by peptide-loaded T2 cells [4]: 2.26e-08 M

B21: A1A2-M01-619 (TCR, V domains shown)
Valpha: B2 Valpha with A25T, Y27S, L28S, S29M, N52F
Vbeta: B2 Vbeta with Q29E, S50T, N51D, E52Y
- EC50 of peptide [3]: 27.4 nM
- EC50 Value (M), JKR9 reporter activation by peptide-loaded T2 cells [4]: 2.74e-08 M

Results, then the binder that gave them:

- EC50 Enhancement Factor [1]: 281
- EC50 Value (M), JKR9 reporter activation by peptide-loaded T2 cells [1]: 5.93e-08 M
- EC50 of peptide [2]: 59.3 nM
B1: ht27M1285 (TCR, V domains shown)
Valpha: B2 Valpha with A25T, Y27S, L28S, N52F
Vbeta: B2 Vbeta

- EC50 Enhancement Factor [1]: 739
- EC50 Value (M), JKR9 reporter activation by peptide-loaded T2 cells [1]: 2.25e-08 M
- EC50 of peptide [2]: 22.5 nM
B4: ht27M1414 (TCR, V domains shown)
Valpha: B2 Valpha with A25T, Y27S, L28S, I49T, F50W, S51P, N52H
Vbeta: B2 Vbeta

- EC50 Enhancement Factor [1]: 1120
- EC50 Value (M), JKR9 reporter activation by peptide-loaded T2 cells [1]: 1.49e-08 M
- EC50 of peptide [2]: 14.9 nM
B5: ht27M1557 (TCR, V domains shown)
Valpha: B2 Valpha with A25T, Y27S, L28S
Vbeta: B2 Vbeta with G102E, P103H, Y104L, E105I

- EC50 Enhancement Factor [1]: 184
- EC50 Value (M), JKR9 reporter activation by peptide-loaded T2 cells [1]: 9.05e-08 M
- EC50 of peptide [2]: 90.5 nM
B12: ht27M1401 (TCR, V domains shown)
Valpha: B2 Valpha with A25T, Y27S, L28S
Vbeta: B2 Vbeta with S50T, N51Q, E52P, G53L

- EC50 Enhancement Factor [1]: 419
- EC50 Value (M), JKR9 reporter activation by peptide-loaded T2 cells [1]: 3.99e-08 M
- EC50 of peptide [2]: 39.9 nM
B14: ht27M1362 (TCR, V domains shown)
Valpha: B2 Valpha with A25T, Y27S, L28S, S51I, N52F, M53Q, D54Y
Vbeta: B2 Vbeta

- EC50 Enhancement Factor [1]: 1650
- EC50 Value (M), JKR9 reporter activation by peptide-loaded T2 cells [1]: 1.01e-08 M
- EC50 of peptide [2]: 10.1 nM
B17: ht27M1418 (TCR, V domains shown)
Valpha: B2 Valpha with A25T, Y27S, L28S, I49G, F50T, S51W, N52L
Vbeta: B2 Vbeta

- EC50 Enhancement Factor [1]: 12
- EC50 Value (M), JKR9 reporter activation by peptide-loaded T2 cells [1]: 1.36e-06 M
- EC50 of peptide [2]: 1360 nM
B22: ht27M1002 (TCR, V domains shown)
Valpha: B2 Valpha with A25T, Y27S, L28S
Vbeta: B2 Vbeta with Q101G
